Measured values from article doi:10.1101/2025.01.10.632437 (bioRxiv, 2025).
Where two headings read alike, the source gives them in different places.

Key:
Experiment in all cases: cryo-EM structure
cryo-EM structure [1] = molecular target: the molecule itself
cryo-EM structure [2] = molecular target: the molecule itself; remark: listed apart in the source
cryo-EM structure [3] = molecular target: the molecule itself; remark: listed apart in the source

B1: bovine TMEM206/PACC1 with C-terminally fused venus-YFP followed by a streptavidin binding peptide tag (natural protein)
chain: not shown
binding result (cryo-EM structure [1]): binds

B2: bovine proton-activated Cl- channel TMEM206/PACC1 without vYFP (conventional purification) (natural protein)
chain: not shown
binding result (cryo-EM structure [2]): binds

B3: murine TMEM16F with C-terminal vYFP and SBP-tag (natural protein, mouse)
chain: QMMTRKVLLNMELEEDDDEDGDIVLENFDQTIVCPTFGSLENQQDFRTPEFEEFNGKPDSLFFTDGQRRIDFILVYEDESKKENNKKGTNEKQKRKRQAYESNLICHGLQLEATRSVSDDKLVFVKVHAPWEVLCTYAEIMHIKLPLKPNDLKTRSPFGNLNWFTKVLRVNESVIKPEQEFFTAPFEKSRMNDFYILDRDSFFNPATRSRIVYFILSRVKYQVMNNVNKFGINRLVSSGIYKAAFPLHDCRFNYESEDISCPSERYLLYREWAHPRSIYKKQPLDLIRKYYGEKIGIYFAWLGYYTQMLLLAAVVGVACFLYGYLDQDNCTWSKEVCDPDIGGQILMCPQCDRLCPFWRLNITCESSKKLCIFDSFGTLIFAVFMGVWVTLFLEFWKRRQAELEYEWDTVELQQEEQARPEYEAQCNHVVINEITQEEERIPFTTCGKCIRVTLCASAVFFWILLIIASVIGIIVYRLSVFIVFSTTLPKNPNGTDPIQKYLTPQMATSITASIISFIIIMILNTIYEKVAIMITNFELPRTQTDYENSLTMKMFLFQFVNYYSSCFYIAFFKGKFVGYPGDPVYLLGKYRSEECDPGGCLLELTTQLTIIMGGKAIWNNIQEVLLPWVMNLIGRYKRVSGSEKITPRWEQDYHLQPMGKLGLFYEYLEMIIQFGFVTLFVASFPLAPLLALVNNILEIRVDAWKLTTQFRRMVPEKAQDIGAWQPIMQGIAILAVVTNAMIIAFTSDMIPRLVYYWSFSIPPYGDHTYYTMDGYINNTLSVFNITDFKNTDKENPYIGLGNYTLCRYRDFRNPPGHPQEYKHNIYYWHVIAAKLAFIIVMEHIIYSVKFFISYAIPDVSKITKSKIKREKYLTQKLLHESHLKDLTKNMGIIAERIGGTVDNSVRPKLE
stoichiometry N (cryo-EM structure [3]): 2
